Residue numbers refer to the chain shown, from its start. Names may count otherwise.
T1: GIPR W233* (Homo sapiens, UniProt P48546)
T1 construct: host or cells: HEK293
T1 sequence (P48546 22-232 limits assumed): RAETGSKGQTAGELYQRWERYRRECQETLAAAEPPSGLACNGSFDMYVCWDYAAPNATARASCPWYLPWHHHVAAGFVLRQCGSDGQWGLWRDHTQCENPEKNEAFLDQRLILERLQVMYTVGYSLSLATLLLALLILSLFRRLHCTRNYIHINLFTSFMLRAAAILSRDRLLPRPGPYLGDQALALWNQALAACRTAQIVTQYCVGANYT

T2: GIPR R190Q (Homo sapiens, UniProt P48546, R190Q)
T2 construct: host or cells: HEK293
T2 sequence (P48546 22-466 R190Q): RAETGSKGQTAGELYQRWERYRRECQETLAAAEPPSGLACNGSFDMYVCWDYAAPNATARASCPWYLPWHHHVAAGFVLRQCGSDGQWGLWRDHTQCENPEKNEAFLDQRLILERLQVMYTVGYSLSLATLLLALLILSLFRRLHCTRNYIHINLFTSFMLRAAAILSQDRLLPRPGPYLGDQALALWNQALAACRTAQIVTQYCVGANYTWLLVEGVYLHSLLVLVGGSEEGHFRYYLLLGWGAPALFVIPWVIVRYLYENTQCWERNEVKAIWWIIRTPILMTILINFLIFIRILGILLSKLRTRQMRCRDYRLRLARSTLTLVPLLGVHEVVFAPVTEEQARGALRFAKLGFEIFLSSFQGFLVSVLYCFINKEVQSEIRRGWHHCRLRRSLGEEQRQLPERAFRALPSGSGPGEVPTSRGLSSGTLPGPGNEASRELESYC

T3: GIPR P195R (Homo sapiens, UniProt P48546, P195R)
T3 construct: host or cells: HEK293
T3 sequence (P48546 22-466 P195R): T2 sequence (P48546 22-466 R190Q) with Q169R, P174R

T4: GIPR I221M (Homo sapiens, UniProt P48546, I221M)
T4 construct: host or cells: HEK293
T4 sequence (P48546 22-466 I221M): T2 sequence (P48546 22-466 R190Q) with Q169R, I200M

T5: GIPR A207V (Homo sapiens, UniProt P48546, A207V)
T5 construct: host or cells: HEK293
T5 sequence (P48546 22-466 A207V): T2 sequence (P48546 22-466 R190Q) with Q169R, A186V

T6: GIPR E288G (Homo sapiens, UniProt P48546, E288G)
T6 construct: host or cells: HEK293
T6 sequence (P48546 22-466 E288G): T2 sequence (P48546 22-466 R190Q) with Q169R, E267G

T7: GIPR L261H (Homo sapiens, UniProt P48546, L261H)
T7 construct: host or cells: HEK293
T7 sequence (P48546 22-466 L261H): T2 sequence (P48546 22-466 R190Q) with Q169R, L240H

B1: W233* (protein)
chain: T1 sequence (P48546 22-232 limits assumed)
B2: R190Q (protein)
chain: T2 sequence (P48546 22-466 R190Q)
B3: P195R (protein)
chain: T2 sequence (P48546 22-466 R190Q) with Q169R, P174R
B4: I221M (protein)
chain: T2 sequence (P48546 22-466 R190Q) with Q169R, I200M
B5: A207V (protein)
chain: T2 sequence (P48546 22-466 R190Q) with Q169R, A186V
B6: L261H (protein)
chain: T2 sequence (P48546 22-466 R190Q) with Q169R, L240H
B7: E288G (protein)
chain: T2 sequence (P48546 22-466 R190Q) with Q169R, E267G

Target: T1, GIPR W233*
Assay: cAMP accumulation
Format: cell-based
Settings: not given

Molecule | Efficacy at 100pmol (cAMP)
B1 | 0.06458

Target: T2, GIPR R190Q
Assay: cAMP accumulation
Format: cell-based
Settings: not given

Molecule | Efficacy at 100pmol (cAMP)
B2 | 0.008847

Target: T3, GIPR P195R
Assay: cAMP accumulation
Format: cell-based
Settings: not given

Molecule | Efficacy at 100pmol (cAMP)
B3 | 0.117

Test system: GIPR variants (groups)
Assay: cAMP accumulation
Format: cell-based, human
Settings: cAMP part of the in vitro group

Molecule | In vitro groups (cAMP)
B1 | LoF_camp
B2 | LoF_camp
B4 | WT-like_camp
B5 | LoF_camp
B6 | LoF_camp
B7 | LoF_camp
B3 | LoF_camp

Same assay, conditions: cAMP production compared with WT

Molecule | percentage_camp
B1 | <50% cAMP
B2 | <50% cAMP
B4 | >50% cAMP
B5 | <50% cAMP
B6 | <50% cAMP
B7 | <50% cAMP
B3 | <50% cAMP

Same assay, conditions: in vitro cAMP production per GIPR variant

Molecule | Beta, cAMP
B2 | 0.008847
B4 | 0.8221
B5 | 0.1592
B6 | 0.4533
B7 | 0.04101
B3 | 0.117

Target: T4, GIPR I221M
Assay: cAMP accumulation
Format: cell-based
Settings: not given

Molecule | Efficacy at 100pmol (cAMP)
B4 | 0.8221

Target: T5, GIPR A207V
Assay: cAMP accumulation
Format: cell-based
Settings: not given

Molecule | Efficacy at 100pmol (cAMP)
B5 | 0.1592

Target: T6, GIPR E288G
Assay: cAMP accumulation
Format: cell-based
Settings: not given

Molecule | Efficacy at 100pmol (cAMP)
B7 | 0.04101

Target: T7, GIPR L261H
Assay: cAMP accumulation
Format: cell-based
Settings: not given

Molecule | Efficacy at 100pmol (cAMP)
B6 | 0.4533

Test system: GIPR variants (groups)
Assay: β-arrestin 2 recruitment (BRET);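 note: BRET readout of β-arrestin 2 recruitment in transiently transfected HEK293 cells expressing WT GIPR or a GIPR variant plus GPCR kinase 2, Rluc8 donor and citrine acceptor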
Settings: arr part of the in vitro group

Molecule | In vitro groups (β-arrestin)
B1 | LoF_arr
B2 | LoF_arr
B4 | LoF_arr
B5 | WT-like_arr
B6 | LoF_arr
B7 | LoF_arr
B3 | WT-like_arr

Same assay, conditions: in vitro β-arrestin recruitment per GIPR variant

Molecule | Beta, Barr
B2 | 0.1131
B4 | 0.1962
B5 | 0.8334
B6 | 0
B7 | 0.09099
B3 | 0.8561

Source: PMC11272584 (Nature Metabolism, 2024)
